From article PMC9482650, “Quantitative fragmentomics allow affinity mapping of interactomes” (Nature Communications, 2022)

Legend:
Assay in all cases: holdup assay
Set-up in all cases: key: below the threshold = too weak to quantify, mostly under pKd 3.1 to 4
DLG3_2, Q92796 = molecular target: T1, DLG3_2, Q92796
T1 sequence (Q92796 221-321, limits assumed, looked up): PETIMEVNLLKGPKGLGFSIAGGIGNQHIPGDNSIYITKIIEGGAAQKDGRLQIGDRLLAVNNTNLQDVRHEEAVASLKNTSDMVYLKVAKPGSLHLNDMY

DLG4_1, P78352 = molecular target: DLG4_1, P78352
FRMPD4, Q14CM0 = molecular target: FRMPD4, Q14CM0
GRIP2_7, Q9C0E4 = molecular target: GRIP2_7, Q9C0E4
HTRA1, Q92743 = molecular target: HTRA1, Q92743
HTRA4, P83105 = molecular target: T2, HTRA4, P83105
T2 sequence (P83105 378-476, limits assumed, looked up): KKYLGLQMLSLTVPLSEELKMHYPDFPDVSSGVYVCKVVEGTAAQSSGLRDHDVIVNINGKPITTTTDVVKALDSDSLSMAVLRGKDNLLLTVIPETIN

IL16_3, Q14005 = molecular target: IL16_3, Q14005
Inadl_3, Q8NI35 = molecular target: Inadl_3, Q8NI35
Inadl_9, Q8NI35 = molecular target: Inadl_9, Q8NI35
LIMK2, P53671 = molecular target: LIMK2, P53671
LIN7A, O14910 = molecular target: T3, LIN7A, O14910
T3 sequence (O14910 103-200, limits assumed, looked up): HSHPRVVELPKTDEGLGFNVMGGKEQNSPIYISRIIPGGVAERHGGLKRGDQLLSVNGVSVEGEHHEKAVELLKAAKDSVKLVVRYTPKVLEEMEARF

LNX1_1, Q8TBB1 = molecular target: LNX1_1, Q8TBB1
MAGI1_2, Q96QZ7 = molecular target: MAGI1_2, Q96QZ7
MAGI2_3, Q86UL8 = molecular target: MAGI2_3, Q86UL8
MAGI2_5, Q86UL8 = molecular target: MAGI2_5, Q86UL8
MAST1, Q9Y2H9 = molecular target: MAST1, Q9Y2H9
MPP7, Q5T2T1 = molecular target: T4, MPP7, Q5T2T1
T4 sequence (Q5T2T1 134-230, limits assumed, looked up): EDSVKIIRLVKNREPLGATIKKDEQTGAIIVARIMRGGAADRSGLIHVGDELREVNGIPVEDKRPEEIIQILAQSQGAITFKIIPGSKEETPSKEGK

NHERF2_2, Q15599 = molecular target: NHERF2_2, Q15599
NHERF3_4, Q5T2W1 = molecular target: T5, NHERF3_4, Q5T2W1
T5 sequence (Q5T2W1 373-468, limits assumed, looked up): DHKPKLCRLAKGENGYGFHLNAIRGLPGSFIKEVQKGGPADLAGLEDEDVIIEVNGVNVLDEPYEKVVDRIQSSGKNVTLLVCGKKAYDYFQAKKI

NHERF4_2, Q86UT5 = molecular target: NHERF4_2, Q86UT5
PARD3B_1, Q8TEW8 = molecular target: T6, PARD3B_1, Q8TEW8
T6 sequence (Q8TEW8 196-299, limits assumed, looked up): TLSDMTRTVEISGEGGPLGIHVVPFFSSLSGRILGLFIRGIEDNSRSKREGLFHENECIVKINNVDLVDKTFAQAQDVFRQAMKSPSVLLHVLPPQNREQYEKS

PDZRN3_1, Q9UPQ7 = molecular target: T7, PDZRN3_1, Q9UPQ7
T7 sequence (Q9UPQ7 244-349, limits assumed, looked up): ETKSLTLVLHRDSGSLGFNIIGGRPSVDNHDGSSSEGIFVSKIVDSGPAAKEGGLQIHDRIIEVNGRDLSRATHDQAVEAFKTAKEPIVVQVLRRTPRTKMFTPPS

PICK1, Q9NRD5 = molecular target: PICK1, Q9NRD5
RAPGEF6, Q8TEU7 = molecular target: T8, RAPGEF6, Q8TEU7
T8 sequence (Q8TEU7 525-625, limits assumed, looked up): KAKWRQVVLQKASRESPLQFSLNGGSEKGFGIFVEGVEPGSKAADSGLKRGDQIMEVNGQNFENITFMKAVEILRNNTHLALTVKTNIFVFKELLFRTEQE

SCRIB_3, Q14160 = molecular target: SCRIB_3, Q14160
SNTG1, Q9NSN8 = molecular target: T9, SNTG1, Q9NSN8
T9 sequence (Q9NSN8 52-150, limits assumed, looked up): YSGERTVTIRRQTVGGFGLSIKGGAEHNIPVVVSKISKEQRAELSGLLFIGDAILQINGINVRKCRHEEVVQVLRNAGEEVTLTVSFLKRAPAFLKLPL

SNTG2, Q9NY99 = molecular target: T10, SNTG2, Q9NY99
T10 sequence (Q9NY99 68-166, limits assumed, looked up): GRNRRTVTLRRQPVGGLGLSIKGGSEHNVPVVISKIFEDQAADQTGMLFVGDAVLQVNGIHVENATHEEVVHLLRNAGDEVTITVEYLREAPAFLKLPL

[1] = plain residues with an end cap or a label only (N-terminal biotin on a linker: ahx)
[2] = plain residues with an end cap or a label only (N-terminal biotin on a linker: ado-ado)
[3] = plain residues with an end cap or a label only (N-terminal biotin on a linker: ttds)

Sequence of MAGI1_2, Q96QZ7 (Q96QZ7 456-580): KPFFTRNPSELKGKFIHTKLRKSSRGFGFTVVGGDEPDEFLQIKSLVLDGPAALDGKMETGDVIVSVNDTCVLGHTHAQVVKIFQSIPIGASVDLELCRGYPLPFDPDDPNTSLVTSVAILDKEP
Sequence of MAST1, Q9Y2H9 (Q9Y2H9 962-1065): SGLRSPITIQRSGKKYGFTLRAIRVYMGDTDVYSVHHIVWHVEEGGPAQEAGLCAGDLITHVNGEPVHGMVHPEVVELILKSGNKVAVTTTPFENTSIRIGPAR
Sequence of PICK1, Q9NRD5 (Q9NRD5 17-115): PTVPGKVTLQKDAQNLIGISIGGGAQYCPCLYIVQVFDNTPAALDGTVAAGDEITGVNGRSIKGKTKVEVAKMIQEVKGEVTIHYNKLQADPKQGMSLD
Sequence of NHERF2_2, Q15599 (Q15599 142-238): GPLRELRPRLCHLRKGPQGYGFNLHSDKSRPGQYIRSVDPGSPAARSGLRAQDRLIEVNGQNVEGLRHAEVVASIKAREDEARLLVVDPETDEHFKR
Sequence of HTRA1, Q92743 (Q92743 360-477): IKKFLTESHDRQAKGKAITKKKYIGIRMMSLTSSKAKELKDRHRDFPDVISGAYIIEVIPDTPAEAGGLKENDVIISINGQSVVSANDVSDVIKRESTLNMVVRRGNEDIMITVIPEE
Sequence of Inadl_3, Q8NI35 (Q8NI35 359-469): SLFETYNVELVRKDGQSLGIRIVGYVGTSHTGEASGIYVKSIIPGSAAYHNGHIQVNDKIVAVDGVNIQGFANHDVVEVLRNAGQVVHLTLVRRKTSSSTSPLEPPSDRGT
Sequence of LIMK2, P53671 (P53671 143-248): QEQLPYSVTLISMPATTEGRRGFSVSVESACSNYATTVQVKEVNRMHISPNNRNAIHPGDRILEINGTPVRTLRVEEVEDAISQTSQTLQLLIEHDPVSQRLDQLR
Sequence of FRMPD4, Q14CM0 (Q14CM0 67-160): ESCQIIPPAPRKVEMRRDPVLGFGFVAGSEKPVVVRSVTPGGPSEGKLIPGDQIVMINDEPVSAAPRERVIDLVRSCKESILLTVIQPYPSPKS
Sequence of DLG4_1, P78352 (P78352 62-152): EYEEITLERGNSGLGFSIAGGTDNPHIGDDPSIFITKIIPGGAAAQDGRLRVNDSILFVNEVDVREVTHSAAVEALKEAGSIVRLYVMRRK
Sequence of GRIP2_7, Q9C0E4 (Q9C0E4 934-1023): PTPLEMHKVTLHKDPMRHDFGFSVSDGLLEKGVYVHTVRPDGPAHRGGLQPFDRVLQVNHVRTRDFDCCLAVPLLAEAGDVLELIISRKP
Sequence of NHERF4_2, Q86UT5 (Q86UT5 220-308): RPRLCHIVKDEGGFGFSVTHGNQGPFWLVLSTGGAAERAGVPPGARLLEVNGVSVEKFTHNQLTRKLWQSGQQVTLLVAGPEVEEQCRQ
Sequence of MAGI2_5, Q86UL8 (Q86UL8 915-1017): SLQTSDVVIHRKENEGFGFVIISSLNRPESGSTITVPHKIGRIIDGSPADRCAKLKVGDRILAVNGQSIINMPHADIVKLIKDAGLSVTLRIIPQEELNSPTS
Sequence of IL16_3, Q14005 (Q14005 1107-1207): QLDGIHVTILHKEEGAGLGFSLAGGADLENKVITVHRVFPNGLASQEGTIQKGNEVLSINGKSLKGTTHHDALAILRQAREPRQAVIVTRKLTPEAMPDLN
Sequence of Inadl_9, Q8NI35 (Q8NI35 1530-1615): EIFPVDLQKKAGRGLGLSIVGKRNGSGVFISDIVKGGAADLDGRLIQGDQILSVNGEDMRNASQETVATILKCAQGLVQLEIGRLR
Sequence of LNX1_1, Q8TBB1 (Q8TBB1 261-371): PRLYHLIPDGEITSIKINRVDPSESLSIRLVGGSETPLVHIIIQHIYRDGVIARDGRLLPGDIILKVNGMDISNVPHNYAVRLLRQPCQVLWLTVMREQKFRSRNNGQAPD
Sequence of MAGI2_3, Q86UL8 (Q86UL8 600-682): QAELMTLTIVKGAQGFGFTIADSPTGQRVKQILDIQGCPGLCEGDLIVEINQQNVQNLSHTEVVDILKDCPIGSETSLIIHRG
Sequence of SCRIB_3, Q14160 (Q14160 999-1103): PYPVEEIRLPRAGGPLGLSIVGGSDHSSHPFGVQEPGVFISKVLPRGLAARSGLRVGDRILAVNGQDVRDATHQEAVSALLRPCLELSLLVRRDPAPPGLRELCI

With TIVSWPGTFL [LNX1, Q8TBB1] the pKd (DLG3_2, Q92796; [1]) was “below the threshold”, the pKd (DLG4_1, P78352; [1]) was “below the threshold” and the pKd (FRMPD4, Q14CM0; [1]) was 3.73. The pKd (GRIP2_7, Q9C0E4; [1]) was “below the threshold”, the pKd (HTRA1, Q92743; [1]) was 4.61 and the pKd (HTRA4, P83105; [1]) was 4. The pKd (IL16_3, Q14005; [1]) was “below the threshold”, the pKd (Inadl_3, Q8NI35; [1]) was 3.62 and the pKd (Inadl_9, Q8NI35; [1]) was “below the threshold”. The pKd (LIMK2, P53671; [1]) was “below the threshold”, the pKd (LIN7A, O14910; [1]) was “below the threshold” and the pKd (LNX1_1, Q8TBB1; [1]) was 4.09. For the same binder, the pKd (MAGI1_2, Q96QZ7; [1]) was “below the threshold”, the pKd (MAGI2_3, Q86UL8; [1]) was “below the threshold” and the pKd (MAGI2_5, Q86UL8; [1]) was “below the threshold”. The pKd (MAST1, Q9Y2H9; [1]) was 4.25, the pKd (MPP7, Q5T2T1; [1]) was “below the threshold” and the pKd (NHERF2_2, Q15599; [1]) was 4.21. The pKd (NHERF3_4, Q5T2W1; [1]) was “below the threshold”, the pKd (NHERF4_2, Q86UT5; [1]) was “below the threshold” and the pKd (PARD3B_1, Q8TEW8; [1]) was 4.31. For the same binder, the pKd (PDZRN3_1, Q9UPQ7; [1]) was 3.85, the pKd (PICK1, Q9NRD5; [1]) was “below the threshold” and the pKd (RAPGEF6, Q8TEU7; [1]) was “below the threshold”. The pKd (SCRIB_3, Q14160; [1]) was 4.29, the pKd (SNTG1, Q9NSN8; [1]) was “below the threshold” and the pKd (SNTG2, Q9NY99; [1]) was “below the threshold”.

With GKKSVKHSKI [ACOT6, Q3I5F7] the pKd (DLG3_2, Q92796; [2]) was “below the threshold”, the pKd (DLG4_1, P78352; [2]) was “below the threshold” and the pKd (FRMPD4, Q14CM0; [2]) was “below the threshold”. The pKd (GRIP2_7, Q9C0E4; [2]) was “below the threshold”, the pKd (HTRA1, Q92743; [2]) was “below the threshold” and the pKd (HTRA4, P83105; [2]) was 3.7. For the same binder, the pKd (IL16_3, Q14005; [2]) was “below the threshold”, the pKd (Inadl_3, Q8NI35; [2]) was “below the threshold” and the pKd (Inadl_9, Q8NI35; [2]) was “below the threshold”. For the same binder, the pKd (LIMK2, P53671; [2]) was “below the threshold”, the pKd (LIN7A, O14910; [2]) was “below the threshold” and the pKd (LNX1_1, Q8TBB1; [2]) was “below the threshold”. The pKd (MAGI1_2, Q96QZ7; [2]) was “below the threshold”, the pKd (MAGI2_3, Q86UL8; [2]) was “below the threshold” and the pKd (MAGI2_5, Q86UL8; [2]) was “below the threshold”. For the same binder, the pKd (MAST1, Q9Y2H9; [2]) was “below the threshold”, the pKd (MPP7, Q5T2T1; [2]) was “below the threshold” and the pKd (NHERF2_2, Q15599; [2]) was “below the threshold”. The pKd (NHERF3_4, Q5T2W1; [2]) was “below the threshold”, the pKd (NHERF4_2, Q86UT5; [2]) was “below the threshold” and the pKd (PARD3B_1, Q8TEW8; [2]) was “below the threshold”. For the same binder, the pKd (PDZRN3_1, Q9UPQ7; [2]) was “below the threshold”, the pKd (PICK1, Q9NRD5; [2]) was 3.99 and the pKd (RAPGEF6, Q8TEU7; [2]) was “below the threshold”. The pKd (SCRIB_3, Q14160; [2]) was “below the threshold”, the pKd (SNTG1, Q9NSN8; [2]) was “below the threshold” and the pKd (SNTG2, Q9NY99; [2]) was 3.52.

NQLAWFDTDL [CTNNB1, P35222] was tested, and the pKd (DLG3_2, Q92796; [3]) was “below the threshold”, the pKd (DLG4_1, P78352; [3]) was “below the threshold” and the pKd (FRMPD4, Q14CM0; [3]) was 4.28. For the same binder, the pKd (GRIP2_7, Q9C0E4; [3]) was “below the threshold”, the pKd (HTRA1, Q92743; [3]) was “below the threshold” and the pKd (HTRA4, P83105; [3]) was “below the threshold”. The pKd (IL16_3, Q14005; [3]) was “below the threshold”, the pKd (Inadl_3, Q8NI35; [3]) was 3.7 and the pKd (Inadl_9, Q8NI35; [3]) was “below the threshold”. The pKd (LIMK2, P53671; [3]) was “below the threshold”, the pKd (LIN7A, O14910; [3]) was “below the threshold” and the pKd (LNX1_1, Q8TBB1; [3]) was 3.47. For the same binder, the pKd (MAGI1_2, Q96QZ7; [3]) was “below the threshold”, the pKd (MAGI2_3, Q86UL8; [3]) was “below the threshold” and the pKd (MAGI2_5, Q86UL8; [3]) was “below the threshold”. For the same binder, the pKd (MAST1, Q9Y2H9; [3]) was 4.83, the pKd (MPP7, Q5T2T1; [3]) was “below the threshold” and the pKd (NHERF2_2, Q15599; [3]) was 4.87. For the same binder, the pKd (NHERF3_4, Q5T2W1; [3]) was “below the threshold”, the pKd (NHERF4_2, Q86UT5; [3]) was “below the threshold” and the pKd (PARD3B_1, Q8TEW8; [3]) was “below the threshold”. The pKd (PDZRN3_1, Q9UPQ7; [3]) was “below the threshold”, the pKd (PICK1, Q9NRD5; [3]) was “below the threshold” and the pKd (RAPGEF6, Q8TEU7; [3]) was “below the threshold”. For the same binder, the pKd (SCRIB_3, Q14160; [3]) was 4.82, the pKd (SNTG1, Q9NSN8; [3]) was 3.71 and the pKd (SNTG2, Q9NY99; [3]) was “below the threshold”.

For GIFPTLTSPL [SHROOM3, Q8TF72], the pKd (DLG3_2, Q92796; [1]) was “below the threshold”, the pKd (DLG4_1, P78352; [1]) was “below the threshold” and the pKd (FRMPD4, Q14CM0; [1]) was “below the threshold”. For the same binder, the pKd (GRIP2_7, Q9C0E4; [1]) was “below the threshold”, the pKd (HTRA1, Q92743; [1]) was “below the threshold” and the pKd (HTRA4, P83105; [1]) was “below the threshold”. The pKd (IL16_3, Q14005; [1]) was “below the threshold”, the pKd (Inadl_3, Q8NI35; [1]) was “below the threshold” and the pKd (Inadl_9, Q8NI35; [1]) was “below the threshold”. The pKd (LIMK2, P53671; [1]) was “below the threshold”, the pKd (LIN7A, O14910; [1]) was “below the threshold” and the pKd (LNX1_1, Q8TBB1; [1]) was “below the threshold”. For the same binder, the pKd (MAGI1_2, Q96QZ7; [1]) was “below the threshold”, the pKd (MAGI2_3, Q86UL8; [1]) was “below the threshold” and the pKd (MAGI2_5, Q86UL8; [1]) was “below the threshold”. The pKd (MAST1, Q9Y2H9; [1]) was 3.5, the pKd (MPP7, Q5T2T1; [1]) was “below the threshold” and the pKd (NHERF2_2, Q15599; [1]) was 3.66. The pKd (NHERF3_4, Q5T2W1; [1]) was 3.95, the pKd (NHERF4_2, Q86UT5; [1]) was “below the threshold” and the pKd (PARD3B_1, Q8TEW8; [1]) was “below the threshold”. For the same binder, the pKd (PDZRN3_1, Q9UPQ7; [1]) was 3.49, the pKd (PICK1, Q9NRD5; [1]) was “below the threshold” and the pKd (RAPGEF6, Q8TEU7; [1]) was “below the threshold”. For the same binder, the pKd (SCRIB_3, Q14160; [1]) was “below the threshold”, the pKd (SNTG1, Q9NSN8; [1]) was “below the threshold” and the pKd (SNTG2, Q9NY99; [1]) was “below the threshold”.
